{"source": "paper PMC3735941", "about": "“Clostridium scindens: a human gut microbe with a high potential to convert glucocorticoids into androgens” (Journal of Lipid Research, 2013)", "experiment_in_all_cases": "purified protein", "format_in_all_cases": "biochemical, [Clostridium] scindens", "key": {"[1]": {"system": "C[C@]12CCC(=O)C=C1CC[C@@H]1[C@@H]2[C@@H](O)C[C@@]2(C)[C@H]1CC[C@]2(O)C(=O)CO", "settings": "NADH co-substrate (150 μM in standard assay), 20 mM sodium phosphate pH 7.0, 0.1 M NaCl, 20% glycerol, 10 mM 2-mercaptoethanol, reductive direction"}, "[2]": {"system": "C[C@]12CCC(=O)C=C1CC[C@@H]1[C@@H]2C(=O)C[C@@]2(C)[C@H]1CC[C@]2(O)[C@@H](O)CO", "settings": "co-substrate not printed for this constant (oxidative direction, NAD+ presumed), 20 mM sodium phosphate pH 7.0, 0.1 M NaCl, 20% glycerol, 10 mM 2-mercaptoethanol"}, "[3]": {"system": "C[C@]12CCC(=O)C=C1CC[C@@H]1[C@@H]2C(=O)C[C@@]2(C)[C@H]1CC[C@]2(O)C(=O)CO", "settings": "NADH co-substrate (150 μM in standard assay), 20 mM sodium phosphate pH 7.0, 0.1 M NaCl, 20% glycerol, 10 mM 2-mercaptoethanol, reductive direction"}}}
{"substance": "DesC (20α-HSDH; desC-ST) ([Clostridium] scindens ATCC 35704)", "values": [{"measurement": "Km", "setting": "[1]", "result": 1.46, "unit": "µM"}, {"measurement": "Km", "setting": "[2]", "result": 4.54, "unit": "µM"}, {"measurement": "Km", "setting": "[3]", "result": 5.35, "unit": "µM"}]}
